In PMC7571800:

Columns and labels:
[1] = biological target: SUZ12(N) 3D;RBBP4;MTF2 full-length (Homo sapiens;Homo sapiens;Homo sapiens?, UniProt Q15022;Q09028;Q9Y483 76-545;1-425;1-593, K195D;R196D;K197D||); assay: EMSA
[2] = biological target: SUZ12(N);RBBP4;MTF2 full-length (Homo sapiens;Homo sapiens;Homo sapiens?, UniProt Q15022;Q09028;Q9Y483 76-545;1-425;1-593, ||); assay: EMSA
Sequence of SUZ12(N);RBBP4;MTF2 full-length (Q15022 76-545, chain 1 of 3): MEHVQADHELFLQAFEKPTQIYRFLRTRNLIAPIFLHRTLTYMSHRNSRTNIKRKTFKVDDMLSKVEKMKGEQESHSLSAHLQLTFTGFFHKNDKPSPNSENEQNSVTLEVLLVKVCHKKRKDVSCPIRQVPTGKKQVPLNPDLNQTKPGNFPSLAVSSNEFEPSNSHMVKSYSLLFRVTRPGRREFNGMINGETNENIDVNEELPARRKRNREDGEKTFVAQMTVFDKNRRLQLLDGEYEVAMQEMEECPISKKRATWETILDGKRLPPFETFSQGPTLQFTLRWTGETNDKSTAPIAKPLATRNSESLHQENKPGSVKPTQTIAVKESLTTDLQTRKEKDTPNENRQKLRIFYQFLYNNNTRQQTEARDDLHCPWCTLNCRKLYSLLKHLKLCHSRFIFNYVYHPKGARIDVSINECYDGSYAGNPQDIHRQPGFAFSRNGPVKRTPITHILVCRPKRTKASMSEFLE
Sequence of SUZ12(N);RBBP4;MTF2 full-length (Q09028 whole entry, chain 2 of 3): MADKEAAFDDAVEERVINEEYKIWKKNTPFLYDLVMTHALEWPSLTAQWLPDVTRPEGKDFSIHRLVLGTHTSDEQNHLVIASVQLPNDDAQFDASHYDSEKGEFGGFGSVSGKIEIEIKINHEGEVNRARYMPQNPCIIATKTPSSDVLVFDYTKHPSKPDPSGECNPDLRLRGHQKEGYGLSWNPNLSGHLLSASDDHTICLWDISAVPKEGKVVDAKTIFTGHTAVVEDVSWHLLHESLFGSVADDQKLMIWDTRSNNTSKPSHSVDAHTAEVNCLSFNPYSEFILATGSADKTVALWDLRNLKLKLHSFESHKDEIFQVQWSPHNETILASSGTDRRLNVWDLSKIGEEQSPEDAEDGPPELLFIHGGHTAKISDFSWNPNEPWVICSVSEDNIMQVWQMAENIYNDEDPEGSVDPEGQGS
Sequence of SUZ12(N);RBBP4;MTF2 full-length (Q9Y483 whole entry, chain 3 of 3): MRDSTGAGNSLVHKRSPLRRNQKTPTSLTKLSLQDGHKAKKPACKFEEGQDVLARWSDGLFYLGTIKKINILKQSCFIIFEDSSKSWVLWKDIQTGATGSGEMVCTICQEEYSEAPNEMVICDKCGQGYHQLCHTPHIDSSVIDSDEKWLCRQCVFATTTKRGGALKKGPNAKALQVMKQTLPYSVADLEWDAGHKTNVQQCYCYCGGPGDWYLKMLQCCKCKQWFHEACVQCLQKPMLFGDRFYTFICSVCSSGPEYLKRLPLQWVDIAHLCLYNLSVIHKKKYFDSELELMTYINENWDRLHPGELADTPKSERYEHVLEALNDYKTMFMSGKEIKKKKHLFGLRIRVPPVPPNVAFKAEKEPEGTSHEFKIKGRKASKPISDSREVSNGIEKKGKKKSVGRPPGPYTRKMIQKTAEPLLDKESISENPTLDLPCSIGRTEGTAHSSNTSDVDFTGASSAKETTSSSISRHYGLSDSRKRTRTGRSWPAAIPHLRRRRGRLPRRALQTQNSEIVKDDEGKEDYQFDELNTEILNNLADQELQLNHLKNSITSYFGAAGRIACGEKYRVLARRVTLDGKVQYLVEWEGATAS

Sequence of SUZ12(N) 3D;RBBP4;MTF2 full-length (Q15022 76-545 K195D/R196D/K197D, chain 1 of 3): as the sequence (Q15022 76-545, chain 1 of 3) above, with K120D, R121D, K122D counted along it
Sequence of SUZ12(N) 3D;RBBP4;MTF2 full-length (Q09028 whole entry, chain 2 of 3): as the sequence (Q09028 whole entry, chain 2 of 3) above
Sequence of SUZ12(N) 3D;RBBP4;MTF2 full-length (Q9Y483 whole entry, chain 3 of 3): as the sequence (Q9Y483 whole entry, chain 3 of 3) above

B1: CGI-LHX6 100 bp (dsDNA)
DNA 1: GTGGTGGTGGTGGTTGAGAAAATAAAACCCAGAGCGCTAGGAGCATCCGCCCGCTCGACGCGCGCCGGGAAATTGAAGCGGGGATATTGACACCGATTCA
DNA 2: TGAATCGGTGTCAATATCCCCGCTTCAATTTCCCGGCGCGCGTCGAGCGGGCGGATGCTCCTAGCGCTCTGGGTTTTATTTTCTCAACCACCACCACCAC
B1 showed a binding signal [1] of over 25 fold weaker than WT and a Kd [2] of 17.6 nM.
